Reference: the supplement of paper PMC7877785
± gives the uncertainty stated by the source.

Assay: self-splicing fitness, log relative to wild type (ln ratio); higher = more splicing; Tetrahymena group I intron in knt gene, E. coli kanamycin selection, DiMSum; sequences stand for … in CUCUCU…GGAGGGAAAAGUUAUCAGGCAUGCACCUGGUAGCUAGUCUUUAAACCAAUAGAUUGCAUCGGUUUAAAAGGCAAGACCGUCAAAUUGCGGGAAAGGGGUCAACAGCCGUUCAGUACCAAGUCUCAGGGGAAACUUUGAGAUGGCCUUGCAAAGGGUAUGGUAAUAAGCUGACGGACAUGGUCCUAACCACGCAGCCAAGUCCUAAGUCAACAGAUCUUCUGUUGAUAUGGAUGCAGUUCACAGACUAAAUGUCGGUCGGGGAAGAUGUAUUCUUCUCAUAAGAUAUAGUCGGACCUCUCCUUAAUGGGAGCUAGCGGAUGAAGUGAUGCAACACUGGAGCCGCUGGGAACUAAUUUGUAUGCGAAAGUAUAUUGAUUAGUUUUGGAGUACUCGUGGUCG
Procedure, shortened: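 Pooled colonies went to amplicon sequencing on an Illumina HiSeq 2500 after six replicate transformations. The plates were LB agar with 100 μg/mL carbenicillin, 50 μM IPTG and 0.2% rhamnose, with or without 25 μg/mL kanamycin, incubated overnight at 37°C or 30°C. The E. coli BL21(DE3) library had all eight P1ex-region intron nucleotides randomised, the intron placed in the knt kanamycin-resistance gene on pET-22b(+). DiMSum fitness is the error-weighted combination of replicate fold changes, kanamycin against none, normalised to wild type.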

Sequence	self-splicing fitness (ln) (30 °C)	self-splicing fitness (ln) (37 °C)
CAAUAGCAAUAUUACGGAAG	-1.36 ± 0.074	-0.459 ± 0.09
CAAUAGCAAUAUUACGGACG	-0.294 ± 0.058	0.146 ± 0.075
CAAUAGCAAUAUUACGGCGU	-2.07 ± 0.11	-0.986 ± 0.12
CAAUAGCAAUAUUACGGGCG	0.548 ± 0.093	0.28 ± 0.11
CAAUAGCAAUAUUACGGGGA	-3.12 ± 0.39	-2.61 ± 0.24
CAAUAGCAAUAUUACGGGUU	-4.25 ± 0.2	-2.31 ± 0.14
CAAUAGCAAUAUUACGUAUG	-1.66 ± 0.12	-1.7 ± 0.12
CAAUAGCAAUAUUACGUCCA	-2.87 ± 0.29	-2.25 ± 0.25
CAAUAGCAAUAUUACGUCUC	-2.8 ± 0.18	-3.4 ± 0.33
CAAUAGCAAUAUUACGUGUA	-3.98 ± 0.18	-2.29 ± 0.11
CAAUAGCAAUAUUACGUUAG	-1.44 ± 0.057	-0.481 ± 0.074
CAAUAGCAAUAUUACGUUGU	-3.27 ± 0.14	-2.12 ± 0.17
CACAAGCAAUAUUACGAAUA	-2.08 ± 0.27	-2.71 ± 0.23
CACAAGCAAUAUUACGAAUU	-3.63 ± 0.26	-2.75 ± 0.21
CACAAGCAAUAUUACGACGU	-2.15 ± 0.086	-0.614 ± 0.077
CACAAGCAAUAUUACGACUC	-1.97 ± 0.11	-0.998 ± 0.12
CACAAGCAAUAUUACGAGUU	-2.91 ± 0.11	-1.13 ± 0.089
CACAAGCAAUAUUACGAUAG	-0.655 ± 0.046	0.242 ± 0.062
CACAAGCAAUAUUACGAUAU	-3.34 ± 0.21	-2.52 ± 0.15
CACAAGCAAUAUUACGAUCC	-2.35 ± 0.21	-1.45 ± 0.23
CACAAGCAAUAUUACGCAAU	-3.31 ± 0.23	-3.31 ± 0.26
CACAAGCAAUAUUACGCACC	-3.98 ± 0.37	-2.4 ± 0.3
CACAAGCAAUAUUACGCCAA	-2.76 ± 0.27	-2.01 ± 0.21
CACAAGCAAUAUUACGCCAG	-1 ± 0.08	-1.09 ± 0.11

Sequence	self-splicing fitness (ln) (30 °C)	self-splicing fitness (ln) (37 °C)
CACAAGCAAUAUUACGCCUA	-1.01 ± 0.091	-0.204 ± 0.085
CACAAGCAAUAUUACGCUGG	-4.18 ± 0.23	-1.74 ± 0.14
CACAAGCAAUAUUACGCUUC	-3.67 ± 0.18	-2.59 ± 0.27
CACAAGCAAUAUUACGGAAC	-4.35 ± 0.24	-3.71 ± 0.25
CACAAGCAAUAUUACGGACU	-2.54 ± 0.14	-2.11 ± 0.14
CACAAGCAAUAUUACGGCAA	-2.21 ± 0.1	-1.55 ± 0.089
CACAAGCAAUAUUACGGGGG	-3.12 ± 0.11	-2.1 ± 0.11
CACAAGCAAUAUUACGGUGC	-3.25 ± 0.2	-2.72 ± 0.24
CACAAGCAAUAUUACGUAAU	-3.79 ± 0.14	-1.65 ± 0.1
CACAAGCAAUAUUACGUAUU	-3.81 ± 0.17	-2.66 ± 0.15
CACAAGCAAUAUUACGUCUG	-1.34 ± 0.07	-0.0931 ± 0.074
CACAAGCAAUAUUACGUGCG	-2.32 ± 0.098	-0.908 ± 0.082
CACAAGCAAUAUUACGUUUA	-2.95 ± 0.15	-1.95 ± 0.13
CACCAGCAAUAUUACGAAAA	-3.1 ± 0.2	-2.33 ± 0.2
CACCAGCAAUAUUACGAAGC	-3.27 ± 0.15	-2 ± 0.14
CACCAGCAAUAUUACGAAGG	-1.1 ± 0.046	-0.304 ± 0.077
CACCAGCAAUAUUACGACGA	-2.13 ± 0.14	-1.54 ± 0.12
CACCAGCAAUAUUACGACUA	-0.763 ± 0.12	-1.3 ± 0.17
CACCAGCAAUAUUACGAUAU	-3.22 ± 0.17	-2.46 ± 0.2
CACCAGCAAUAUUACGAUCU	-4.3 ± 0.23	-2.43 ± 0.15
CACCAGCAAUAUUACGAUGC	-2.96 ± 0.13	-2.06 ± 0.14
CACCAGCAAUAUUACGAUUC	-2.18 ± 0.094	-2.32 ± 0.18
CACCAGCAAUAUUACGCAAG	-0.716 ± 0.093	-0.12 ± 0.11
CACCAGCAAUAUUACGCAGA	-3.13 ± 0.13	-2.57 ± 0.13

Sequence	self-splicing fitness (ln) (30 °C)	self-splicing fitness (ln) (37 °C)
CACCAGCAAUAUUACGCGCU	-3.42 ± 0.14	-2.59 ± 0.16
CACCAGCAAUAUUACGCUGA	-3.31 ± 0.17	-2.68 ± 0.15
CACCAGCAAUAUUACGCUUA	-2.24 ± 0.09	-1.23 ± 0.083
CACCAGCAAUAUUACGGCAU	-2.64 ± 0.066	-0.735 ± 0.069
CACCAGCAAUAUUACGGCGU	-2.28 ± 0.097	-0.886 ± 0.11
CACCAGCAAUAUUACGGGAC	-4.05 ± 0.13	-2.05 ± 0.1
CACCAGCAAUAUUACGGGUG	-3.87 ± 0.15	-2.26 ± 0.15
CACCAGCAAUAUUACGGUCG	-1.28 ± 0.062	-0.351 ± 0.069
CACCAGCAAUAUUACGGUCU	-1.44 ± 0.044	-1.04 ± 0.057
CACCAGCAAUAUUACGGUUA	-0.251 ± 0.068	-0.0422 ± 0.09
CACCAGCAAUAUUACGUAAU	-2.63 ± 0.078	-1.89 ± 0.097
CACCAGCAAUAUUACGUACA	-3.16 ± 0.17	-1.59 ± 0.13
CACCAGCAAUAUUACGUAUC	-3.55 ± 0.14	-2.99 ± 0.19
CACCAGCAAUAUUACGUAUG	-0.556 ± 0.041	-0.105 ± 0.055
CACCAGCAAUAUUACGUCCG	-0.0929 ± 0.051	0.19 ± 0.071
CACCAGCAAUAUUACGUGCC	-3.42 ± 0.27	-1.27 ± 0.46
CACCAGCAAUAUUACGUGUA	-2.09 ± 0.065	-0.896 ± 0.069
CACCAGCAAUAUUACGUUGA	-4.33 ± 0.31	-2.1 ± 0.13
CACCAGCAAUAUUACGUUUU	-3.95 ± 0.15	-3.22 ± 0.18
CACGAGCAAUAUUACGAAAC	-2.02 ± 0.36	-1.68 ± 0.4
CACGAGCAAUAUUACGAAGG	-3.2 ± 0.19	-2.01 ± 0.26
CACGAGCAAUAUUACGACAU	-3.645 ± 0.024	-2.92 ± 0.04
CACGAGCAAUAUUACGACCU	-2.18 ± 0.17	-2.27 ± 0.27
CACGAGCAAUAUUACGAGCC	-3.12 ± 0.31	-3.55 ± 0.47

Sequence	self-splicing fitness (ln) (30 °C)	self-splicing fitness (ln) (37 °C)
CACGAGCAAUAUUACGAGCU	-4.14 ± 0.35	-3.33 ± 0.39
CACGAGCAAUAUUACGAGUG	-3.34 ± 0.17	-1.83 ± 0.18
CACGAGCAAUAUUACGAUAA	-3.63 ± 0.32	-2.32 ± 0.28
CACGAGCAAUAUUACGAUAU	-2.64 ± 0.15	-2.19 ± 0.28
CACGAGCAAUAUUACGCAGC		-1.29 ± 0.35
CACGAGCAAUAUUACGCCAC	-2.97 ± 0.38	-1.02 ± 0.34
CACGAGCAAUAUUACGCCAG	-3.4 ± 0.27	-2.95 ± 0.28
CACGAGCAAUAUUACGCGGA	-3.61 ± 0.37	-3.37 ± 0.4
CACGAGCAAUAUUACGCUUC	-3.96 ± 0.24	-3.25 ± 0.3
CACGAGCAAUAUUACGGAAU	-2.85 ± 0.25	-1.67 ± 0.23
CACGAGCAAUAUUACGGCUC	-2.71 ± 0.29	-1.6 ± 0.28
CACGAGCAAUAUUACGUAAC	-2.41 ± 0.27	
CACGAGCAAUAUUACGUCCG	-1.34 ± 0.092	-0.226 ± 0.096
CACGAGCAAUAUUACGUUAC	-4.19 ± 0.36	-1.25 ± 0.23
CACGAGCAAUAUUACGUUGC	-3.91 ± 0.24	-2.14 ± 0.21
CACUAGCAAUAUUACGACAA	-3.16 ± 0.37	-2.06 ± 0.29
CACUAGCAAUAUUACGAGCA	-3.42 ± 0.18	-0.879 ± 0.11
CACUAGCAAUAUUACGAGGC	-4.08 ± 0.42	-2.38 ± 0.2
CACUAGCAAUAUUACGAUUA	-1.21 ± 0.21	-2.44 ± 0.28
CACUAGCAAUAUUACGCACG	-0.378 ± 0.099	-0.823 ± 0.089
CACUAGCAAUAUUACGCACU	-1.54 ± 0.11	-0.108 ± 0.11
CACUAGCAAUAUUACGCAUU	-3.06 ± 0.23	-2.17 ± 0.17
CACUAGCAAUAUUACGCCCA	-1.1 ± 0.16	-1.35 ± 0.27
